This is an account of results in article PMC4822050, “Hemi-methylated DNA opens a closed conformation of UHRF1 to facilitate its histone recognition” (Nature Communications, 2016).

In one assay the test system is H3K9me3 peptide (1–17). Kind of assay: ITC, H3K9me3 peptide (1-17) titrated into UHRF1 proteins. The conditions noted are these: for fold higher binding affinity to H3K9me3 peptide than full-length UHRF1: ITC KD ratio. The assay is classed as binding. The procedure: (§1) For competition ITC experiments: the indicated proteins were pre-incubated with competitive peptide, protein or hm-DNA (at 1:2 molar ratio if not specified) for 10 min followed by ITC measurements as described above. Proteins, DNA and peptides were prepared within ITC buffer containing 10 mM HEPES, pH 8.0, 100 mM NaCl. The data were fitted by software Origin 7.0. All ITC results were summarized in Supplementary Table 2 and raw data were shown in Supplementary Fig. 9.
On the technique in general: Isothermal titration calorimetry measures the heat released or taken up as one component is titrated into another.

For assay [1], the target named is T1, Spacer (residues 587–674) of UHRF1 (Homo sapiens, UniProt Q96T88).
T1 construct: Spacer (residues 587–674); GST (N, cleaved yes); made in house; host or cells: E. coli BL21 (DE3)
T1 sequence (Q96T88 587-674): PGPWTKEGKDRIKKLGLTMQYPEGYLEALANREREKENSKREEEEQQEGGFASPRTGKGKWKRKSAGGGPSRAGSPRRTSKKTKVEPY
Kind of assay: ITC, interaction of UHRF1 domains with the Spacer. The assay is classed as binding. The procedure: as §1

Assay [2] concerns the target T2, TTD (residues 134–285) of UHRF1 (Homo sapiens, UniProt Q96T88).
T2 construct: TTD (residues 134–285); GST (N, cleaved yes); made in house; host or cells: E. coli BL21 (DE3)
T2 sequence (Q96T88 134-285): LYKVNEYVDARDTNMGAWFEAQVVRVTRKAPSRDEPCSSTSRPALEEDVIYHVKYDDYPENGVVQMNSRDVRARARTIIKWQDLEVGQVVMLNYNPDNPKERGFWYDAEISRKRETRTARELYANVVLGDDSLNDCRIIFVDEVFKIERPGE
Kind of assay: ITC, TTD titrated into Spacer variants and other UHRF1 fragments. It counts as binding. The conditions noted are these: TTD in syringe; for N: ITC stoichiometry; for ΔH / ΔS: ITC. The procedure: as §1

The target of the next assay is hm-DNA (12 bp). Kind of assay: ITC, hm-DNA titrated into UHRF1 domains. The assay is classed as binding. As to conditions: 18 °C, 12-bp hm-DNA in syringe, named protein in cell, 10 mM HEPES pH 8.0, 100 mM NaCl. The procedure:
as §1

The test system of assay [3] is DAPI foci (pericentromeric heterochromatin) in NIH3T3 cells. Kind of assay: Subcellular localization of GFP-tagged UHRF1 in NIH3T3 cells. It counts as cell-based. As to conditions: GFP-tagged protein transiently overexpressed in NIH3T3 cells, 36 h after transfection; at least 100 cells counted; repeated three times. The procedure:
NIH3T3 cells were obtained from the Shanghai Institute of Biochemistry and Cell Biology. Wild type and mutants of UHRF1 were sub-cloned into pEGFP-C1 vector. Transient transfections of NIH3T3 cells were carried out using Lipofectamine 2000 (Invitrogen). The NIH3T3 cells were grown on glass coverslips and harvested in 36 h after transfection. The images were acquired and examined as previously described. Briefly, cells were fixed with 4% paraformaldehyde for 25 min, then washed with PBS three times. Coverslips were mounted with Antifade reagent containing DAPI (Molecular Probes) on slides and examined with a confocal microscopy.

In the next assay the test system is FAM-12bp-HM-DNA. Kind of assay: Fluorescence polarization, 12-bp FAM-hm-DNA. The conditions noted are these: for Kd: FP. The assay is classed as binding. The procedure: A 6-carboxy-fluorescein (FAM)-labelled primer, 5′-CCATGCGCTGAC-3′, was annealed to a primer 5′-GTCAGXGCATGG-3′ (X=5-methyldeoxycytosine). The hemi-methylated double-strand DNA was used in both electrophoretic mobility-shift assay and FP assays. […] The samples were subjected to a 10% polyacrylamide gel electrophoresis and run in 0.5 × Tris-borate-EDTA buffer at 100 V for 1 h at 4 °C. The results were visualized on Tanon-5200 Chemiluminescent Imaging System (Tanon Science & Technology Co., Ltd).
(§2) FP measurements were performed at 25 °C on Synergy 4 Microplate Reader (BioTek). The 16-bp and 20-bp FAM-labelled hm-DNA (lower strand: 5′-GTGTCAGXGCATGGCC-3′ and 5′-CCGTGTCAGXGCATGGCCAT-3′, respectively. X=5-methyldeoxycytosine) were used in the FP experiment to test the effect of DNA length on the protein/DNA interaction. All experiments were performed in triplicate. The curves were fitted by GraphPad Prism 5. For salt concentration-dependent FP experiments, the reaction buffer contains 50 mM or 150 mM NaCl, respectively.
(In fluorescence polarisation assays a small probe gives low polarisation when free and higher when bound to something large.)

A further assay concerns the target RFTS^DNMT1. Kind of assay: ITC, RFTS of DNMT1 with SRA or SRA-Spacer. The conditions noted are these: 18 °C, RFTS^DNMT1 with named protein, 10 mM HEPES pH 8.0, 100 mM NaCl. It counts as binding. The procedure: as §1
The target in a further assay is FAM-16bp-HM-DNA. Kind of assay: Fluorescence polarization, 16-bp FAM-hm-DNA. As to conditions: FP, DNA length series. It counts as binding. The procedure:
as §2

In a further assay the target is FAM-20bp-HM-DNA. Kind of assay: Fluorescence polarization, 20-bp FAM-hm-DNA. The assay is classed as binding. As to conditions: FP, DNA length series. The procedure:
as §2

Where [4] appears, read: 25 °C, 20 min, 20 mM HEPES pH 7.5, 175 mM NaCl, 8% glycerol, 1 mM DTT, triplicate, Fig. 5b and Supplementary Table 4.

Where two headings read alike, the source gives them in different places.

B1: TTD–PHD: human UHRF1 residues 134–366 (protein)
chain: LYKVNEYVDARDTNMGAWFEAQVVRVTRKAPSRDEPCSSTSRPALEEDVIYHVKYDDYPENGVVQMNSRDVRARARTIIKWQDLEVGQVVMLNYNPDNPKERGFWYDAEISRKRETRTARELYANVVLGDDSLNDCRIIFVDEVFKIERPGEGSPMVDNPMRRKSGPSCKHCKDDVNRLCRVCACHLCGGRQDPDKQLMCDECDMAFHIYCLDPPLSSVPSEDEWYCPECRND
modifications: left off: GST, end not stated, cleaved
Regarding B1, the “fold higher binding affinity to H3K9me3 peptide than full-length UHRF1” value in the assay on H3K9me3 peptide (1–17) is reported as around 31 fold. Moreover, at H3K9me3 peptide (1–17) (ITC, 18 °C, named protein 0.05 mM in cell, H3K9me3 (1-17) 0.5 mM in syringe, 10 mM HEPES pH 8.0, 100 mM NaCl, read-out: KD), the Kd worked out at 0.15 µM. The same molecule returned a N in assay [1] (ITC stoichiometry, Spacer in syringe) of 0.887±0.0379. In [1] (ITC, 18 °C, Spacer in syringe, named protein in cell, 10 mM HEPES pH 8.0, 100 mM NaCl), this molecule returned a Kd of 10.7 µM. In assay [1] (ITC, Spacer in syringe), this molecule had a ΔH of -27.45 ± 1.722 kJ/mol and a ΔS of 0.285 cal/mol/deg. Further, the “interaction between the Spacer and the named protein in the presence of H3K9me3” value in [1] (ITC, molar ratio of TTD-PHD or TTD: H3K9me3=1:2) is recorded as “No detectable interaction”.

B2: Spacer: C-terminal spacer region of human UHRF1 (residues 587–674) (protein)
chain: T1 sequence (Q96T88 587-674)
modifications: left off: GST, end not stated, cleaved
Turning to B2, in assay [2], the N came to 0.95±0.00786, the ΔH is recorded as -1.13 E4±116.7 cal/mol and the ΔS is -12.3 cal/mol/deg. In addition, on hm-DNA (12 bp), the KD result was “no interaction”. The Kd on H3K9me3 peptide (1–17) (competition ITC, molar ratio TTD–PHD/Spacer=1:2, read-out: KD of H3K9me3 for TTD–PHD in the presence of the Spacer) stood at 1.63 ± 0.08 µM.

B3: UHRF1∆627-674: spacer deletion mutant of UHRF1 (residues 627–674 deleted) (protein)
chain: MWIQVRTMDGRQTHTVDSLSRLTKVEELRRKIQELFHVEPGLQRLFYRGKQMEDGHTLFDYEVRLNDTIQLLVRQSLVLPHSTKERDSELSDTDSGCCLGQSESDKSSTHGEAAAETDSRPADEDMWDETELGLYKVNEYVDARDTNMGAWFEAQVVRVTRKAPSRDEPCSSTSRPALEEDVIYHVKYDDYPENGVVQMNSRDVRARARTIIKWQDLEVGQVVMLNYNPDNPKERGFWYDAEISRKRETRTARELYANVVLGDDSLNDCRIIFVDEVFKIERPGEGSPMVDNPMRRKSGPSCKHCKDDVNRLCRVCACHLCGGRQDPDKQLMCDECDMAFHIYCLDPPLSSVPSEDEWYCPECRNDASEVVLAGERLRESKKKAKMASATSSSQRDWGKGMACVGRTKECTIVPSNHYGPIPGIPVGTMWRFRVQVSESGVHRPHVAGIHGRSNDGAYSLVLAGGYEDDVDHGNFFTYTGSGGRDLSGNKRTAEQSCDQKLTNTNRALALNCFAPINDQEGAEAKDWRSGKPVRVVRNVKGGKNSKYAPAEGNRYDGIYKVVKYWPEKGKSGFLVWRYLLRRDDDEPGPWTKEGKDRIKKLGLTMQYPEGYLEALANREREKENSKSLTAQQSSLIREDKSNAKLWNEVLASLKDRPASGSPFQLFLSKVEETFQCICCQELVFRPITTVCQHNVCKDCLDRSFRAQVFSCPACRYDLGRSYAMQVNQPLQTVLNQLFPGYGNGR
modifications: left off: GST, end not stated, cleaved
On to B3, for which the “fold higher binding affinity to H3K9me3 peptide than full-length UHRF1” value in the assay on H3K9me3 peptide (1–17) is “four”. In addition, the “percentage of cells showing co-localization with DAPI foci” value in assay [3] stood at 22.1%. For the same molecule, the “factor of decrease in hm-DNA-binding affinity compared with full-length UHRF1” value with FAM-12bp-HM-DNA (FP KD ratio) was determined as 14. For the same molecule, the Kd on FAM-12bp-HM-DNA (setting [4]) came out at 4.94 ± 1.09 µM.

B4: SRA–Spacer: human UHRF1 residues 414–674 (protein)
chain: PSNHYGPIPGIPVGTMWRFRVQVSESGVHRPHVAGIHGRSNDGAYSLVLAGGYEDDVDHGNFFTYTGSGGRDLSGNKRTAEQSCDQKLTNTNRALALNCFAPINDQEGAEAKDWRSGKPVRVVRNVKGGKNSKYAPAEGNRYDGIYKVVKYWPEKGKSGFLVWRYLLRRDDDEPGPWTKEGKDRIKKLGLTMQYPEGYLEALANREREKENSKREEEEQQEGGFASPRTGKGKWKRKSAGGGPSRAGSPRRTSKKTKVEPY
modifications: left off: GST, end not stated, cleaved
Consider B4, for which the Kd came out at 7.09 µM at RFTS^DNMT1; 1.75 µM on hm-DNA (12 bp); 0.39 ± 0.07 µM at FAM-16bp-HM-DNA; 0.024 ± 0.0037 µM on FAM-12bp-HM-DNA (12-bp hm-DNA, 50 mM NaCl); 0.58 ± 0.098 µM on FAM-12bp-HM-DNA (12-bp hm-DNA, 150 mM NaCl); 0.49 µM on FAM-12bp-HM-DNA (setting [4]). For the same molecule, the Kd was found to be 0.34 ± 0.09 µM at FAM-12bp-HM-DNA (DNA length series, Supplementary Table 5, 12-bp hm-DNA); 0.49 µM on FAM-12bp-HM-DNA (values as printed in Fig. 5c (Spacer truncation mapping)); 0.4 ± 0.07 µM at FAM-20bp-HM-DNA. This molecule also displayed a N in assay [2] of 0.788±0.0108. Besides, the ΔH in assay [2] is -1.199E4±224.9 cal/mol. For the same molecule, the ΔS in assay [2] is -13.3 cal/mol/deg.

B5: R295D/R296D mutant of full-length UHRF1: full-length UHRF1 with Linker mutation R295D/R296D (protein)
chain: MWIQVRTMDGRQTHTVDSLSRLTKVEELRRKIQELFHVEPGLQRLFYRGKQMEDGHTLFDYEVRLNDTIQLLVRQSLVLPHSTKERDSELSDTDSGCCLGQSESDKSSTHGEAAAETDSRPADEDMWDETELGLYKVNEYVDARDTNMGAWFEAQVVRVTRKAPSRDEPCSSTSRPALEEDVIYHVKYDDYPENGVVQMNSRDVRARARTIIKWQDLEVGQVVMLNYNPDNPKERGFWYDAEISRKRETRTARELYANVVLGDDSLNDCRIIFVDEVFKIERPGEGSPMVDNPMDDKSGPSCKHCKDDVNRLCRVCACHLCGGRQDPDKQLMCDECDMAFHIYCLDPPLSSVPSEDEWYCPECRNDASEVVLAGERLRESKKKAKMASATSSSQRDWGKGMACVGRTKECTIVPSNHYGPIPGIPVGTMWRFRVQVSESGVHRPHVAGIHGRSNDGAYSLVLAGGYEDDVDHGNFFTYTGSGGRDLSGNKRTAEQSCDQKLTNTNRALALNCFAPINDQEGAEAKDWRSGKPVRVVRNVKGGKNSKYAPAEGNRYDGIYKVVKYWPEKGKSGFLVWRYLLRRDDDEPGPWTKEGKDRIKKLGLTMQYPEGYLEALANREREKENSKREEEEQQEGGFASPRTGKGKWKRKSAGGGPSRAGSPRRTSKKTKVEPYSLTAQQSSLIREDKSNAKLWNEVLASLKDRPASGSPFQLFLSKVEETFQCICCQELVFRPITTVCQHNVCKDCLDRSFRAQVFSCPACRYDLGRSYAMQVNQPLQTVLNQLFPGYGNGR
modifications: left off: GST, end not stated, cleaved
Consider B5, for which the “fold lower binding affinity to H3K9me3 than wild type UHRF1” value in the assay with H3K9me3 peptide (1–17) (ITC, Supplementary Fig. 4g) is listed as “eight”.

What is called Kd is a measure of binding affinity in units of concentration.
